Experimental data from the supplement of paper PMC10567573.

B1: FUT8 (parent)
chain: YAHQPRTADEIPMEPGDIIGVAGN
B2: DLC1 (parent)
chain: AIQGISEKEKAEIEAKEACDWLRA

Variants of: B1
Assay: protein stability index of a GFP-peptide fusion (GPS, HEK-293T) (PSI 1-6); higher = more stable
Conditions: c terminus: a fixed tail appended
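Also: lentivirally expressed fusions sorted by FACS into six bins by GFP to DsRed ratio, PSI derived from sequencing read proportions per bin multiplied by bin number.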

| Variant | protein stability index |
| --- | --- |
| E14G | 3.35 |
| E14V | 3.58 |
| E14M | 3.25 |
| E14H | 3.5 |
| E14A | 3.41 |
| D17W | 1.41 |
| H3C | 3.62 |
| H3W | 3.11 |
| H3F | 3.66 |
| H3Q | 4.39 |
| H3I | 4.2 |
| A8R | 3.89 |
| A8Q | 4.25 |
| A8M | 3.74 |
| A8E | 4.4 |
| A8D | 4.49 |
| A8L | 3.43 |
| A8S | 3.87 |
| A8H | 3.87 |
| A8F | 3.48 |
| Q4G | 3.52 |
| Q4C | 3.81 |

| Variant | protein stability index |
| --- | --- |
| T7G | 4.18 |
| T7V | 3.89 |
| T7F | 2.37 |
| T7I | 3.66 |
| T7K | 3.56 |
| T7E | 4.84 |
| T7C | 2.73 |
| M13Y | 4.12 |
| M13K | 3.95 |
| M13W | 3.08 |
| M13P | 4.18 |
| M13E | 4.73 |
| I19K | 4.42 |
| I19C | 4.22 |
| I19A | 4.67 |
| I19Q | 4.25 |
| I18E | 4.19 |
| I18W | 3.11 |
| I18D | 4.95 |
| I18Q | 4.07 |
| I18P | 4.7 |
| I18M | 4.21 |

| Variant | protein stability index |
| --- | --- |
| I11M | 4.09 |
| I11Q | 4.46 |
| I11G | 3.98 |
| G16R | 3.66 |
| G16M | 3.54 |
| G16A | 4.3 |
| G16Q | 4.17 |
| G16S | 3.87 |
| G16F | 2.93 |
| G16T | 3.86 |
| P5S | 3.85 |
| P5G | 3.96 |
| N24D | 4.71 |
| R6T | 4.59 |
| R6M | 3.84 |
| R6N | 4.33 |
| R6S | 4.46 |
| R6W | 2.62 |
| Y1C | 3.93 |
| Y1K | 5 |
| Y1T | 5.16 |
| Y1V | 4.28 |

| Variant | protein stability index |
| --- | --- |
| Y1M | 5.19 |
| Y1D | 5.19 |
| A22L | 3.63 |
| A22P | 4.06 |
| A22G | 4.01 |
| A22E | 3.92 |
| A22N | 4.38 |
| A22F | 2.85 |
| G20H | 4.17 |
| G20E | 4.48 |
| G20Y | 3.37 |
| G20I | 3.26 |
| G20V | 3.5 |
| G20D | 4.59 |
| V21C | 4 |
| V21W | 3.03 |
| V21F | 3.8 |
| V21P | 4.13 |
| G23Y | 3.13 |
| G23P | 3.73 |
| G23W | 2.67 |
| G23K | 4.19 |

| Variant | protein stability index |
| --- | --- |
| E10M | 3.44 |
| E10H | 3.33 |
| P12K | 3.96 |
| P12D | 4.2 |
| P12Q | 4.47 |
| P12V | 3.72 |
| P12M | 3.58 |
| P12H | 3.41 |
| P12G | 3.6 |
| P12I | 3.27 |
| A2M | 4.38 |
| A2T | 4.49 |
| A2L | 4.67 |
| P15V | 3.58 |
| P15D | 4.32 |
| P15M | 3.68 |
| P15S | 3.92 |
| D9N | 3.65 |
| D9E | 4.09 |
| D9P | 3.33 |
| D9V | 2.52 |
| D9Y | 2.62 |

Variants of: B2
Assay: as above
Conditions: c terminus: a fixed tail appended

| Variant | protein stability index |
| --- | --- |
| K8M | 4.49 |
| K8F | 3.97 |
| K8V | 4.2 |
| K8G | 4.6 |
| K8C | 4 |
| K8N | 3.88 |
| K8Q | 4.3 |
| K8H | 4.4 |
| K8I | 4.5 |
| K8E | 5.05 |
| K8D | 4.61 |
| K8A | 3.75 |
| K8W | 3.68 |
| K8R | 4.43 |
| K8L | 3.85 |
| K8Y | 3.69 |
| K8P | 4.72 |
| K8T | 5.01 |
| K8S | 3.98 |
| I5C | 4.66 |
| I5R | 4.57 |
| I5G | 4.9 |
| I5T | 4.87 |
| I5S | 4.8 |
| I5M | 5.16 |

| Variant | protein stability index |
| --- | --- |
| I5K | 4.71 |
| I5A | 4.77 |
| I5Q | 4.97 |
| I5V | 4.54 |
| I5F | 4.18 |
| I5Y | 4.45 |
| I5D | 5.19 |
| I5N | 4.79 |
| I5H | 4.94 |
| I5E | 4.35 |
| I5P | 4.46 |
| I5W | 4.47 |
| I5L | 4.36 |
| K10S | 4.61 |
| K10C | 4.54 |
| K10F | 3.71 |
| K10N | 4.71 |
| K10L | 4.08 |
| K10E | 4 |
| K10H | 4.38 |
| K10V | 3.9 |
| K10R | 4.04 |
| K10Q | 4.57 |
| K10W | 3.73 |
| K10I | 3.8 |

| Variant | protein stability index |
| --- | --- |
| K10M | 4.67 |
| K10T | 4.68 |
| K10D | 4.47 |
| K10A | 4.67 |
| K10G | 4.17 |
| K10Y | 4.11 |
| K10P | 4.18 |
| S6C | 4.3 |
| S6T | 4.73 |
| S6I | 3.58 |
| S6M | 4.04 |
| S6P | 4.88 |
| S6Y | 3.48 |
| S6R | 4.46 |
| S6K | 3.96 |
| S6F | 3.86 |
| S6L | 3.56 |
| S6H | 4.28 |
| S6D | 4.84 |
| S6W | 3.71 |
| S6N | 4.54 |
| S6E | 4.99 |
| S6A | 4.31 |
| S6V | 4.14 |
| S6Q | 4.74 |

| Variant | protein stability index |
| --- | --- |
| S6G | 4.39 |
| E7W | 3.58 |
| E7M | 3.67 |
| E7D | 4.39 |
| E7H | 3.86 |
| E7P | 3.71 |
| E7R | 3.62 |
| E7A | 4.25 |
| E7F | 3.44 |
| E7T | 4.14 |
| E7I | 3.63 |
| E7L | 3.06 |
| E7Y | 3.63 |
| E7G | 4.22 |
| E7K | 4.3 |
| E7N | 3.72 |
| E7V | 3.88 |
| E7C | 3.61 |
| E7Q | 4.06 |
| E7S | 4.15 |
| A1M | 4.09 |
| A1W | 3.23 |
| A1D | 4.96 |
| A1Y | 3.71 |
| A1G | 4.58 |

| Variant | protein stability index |
| --- | --- |
| A1H | 4.21 |
| A1I | 3.94 |
| A1P | 4.47 |
| A1E | 4.74 |
| A1S | 4.67 |
| A1R | 4.55 |
| A1K | 4.32 |
| A1C | 4.09 |
| A1T | 4.6 |
| A1N | 5.11 |
| A1Q | 4.23 |
| A1L | 4.21 |
| A1V | 4.18 |
| A1F | 3.18 |
| I2T | 5 |
| I2Q | 4.79 |
| I2G | 4.57 |
| I2V | 4.19 |
| I2A | 4.94 |
| I2M | 4.94 |
| I2W | 4.37 |
| I2P | 4.96 |
| I2R | 4.78 |
| I2E | 5.26 |
| I2S | 4.99 |

| Variant | protein stability index |
| --- | --- |
| I2L | 4.91 |
| I2K | 4.56 |
| I2F | 4.81 |
| I2D | 4.99 |
| I2H | 4.9 |
| I2Y | 4.24 |
| I2N | 5.13 |
| I2C | 4.88 |
| E9F | 2.69 |
| E9Q | 4.14 |
| E9Y | 3.48 |
| E9K | 3.97 |
| E9G | 4.23 |
| E9A | 4.19 |
| E9M | 3.22 |
| E9D | 4.2 |
| E9P | 4.08 |
| E9W | 3.63 |
| E9I | 3.29 |
| E9S | 4.22 |
| E9N | 4.5 |
| E9L | 2.97 |
| E9H | 4.71 |
| E9C | 3.76 |
| E9T | 4.12 |

| Variant | protein stability index |
| --- | --- |
| E9R | 3.08 |
| E9V | 3.88 |
| E12H | 3.46 |
| E12M | 3.98 |
| E12L | 3.72 |
| E12F | 3.82 |
| E12P | 4.63 |
| E12N | 4.5 |
| E12D | 4.43 |
| E12C | 3.85 |
| E12I | 4.02 |
| E12K | 3.81 |
| E12G | 4.42 |
| E12S | 4.02 |
| E12A | 3.89 |
| E12R | 3.86 |
| E12Q | 4.18 |
| A11Y | 4.16 |
| A11V | 4.61 |
| A11W | 3.53 |
| A11I | 3.67 |
| A11C | 4.32 |
| A11P | 4.51 |
| A11F | 3.64 |
| A11K | 4.47 |

| Variant | protein stability index |
| --- | --- |
| A11G | 4.56 |
| A11M | 3.99 |
| A11L | 4.23 |
| A11H | 4.34 |
| A11D | 5.18 |
| A11S | 4.79 |
| A11T | 4.67 |
| A11Q | 4.57 |
| A11E | 4.87 |
| A11R | 4.23 |
| A11N | 4.5 |
| G4N | 3.67 |
| G4E | 4.53 |
| G4A | 4.47 |
| G4V | 3.9 |
| G4H | 4.36 |
| G4T | 4.2 |
| G4L | 3.27 |
| G4Q | 4.46 |
| G4D | 4.79 |
| G4K | 4.26 |
| G4Y | 3.73 |
| G4F | 4.24 |
| G4R | 3.08 |
| G4W | 3.8 |

| Variant | protein stability index |
| --- | --- |
| G4M | 3.92 |
| G4I | 3.15 |
| G4S | 4.45 |
| G4C | 4.32 |
| G4P | 4.33 |
| Q3I | 3.88 |
| Q3G | 4.33 |
| Q3E | 5.07 |
| Q3M | 4.18 |
| Q3C | 4.28 |
| Q3Y | 3.47 |
| Q3P | 4.19 |
| Q3R | 4.43 |
| Q3W | 3.58 |
| Q3H | 4.68 |
| Q3S | 4.56 |
| Q3L | 3.54 |
| Q3T | 4.81 |
| Q3D | 5.2 |
| Q3N | 3.77 |
| Q3A | 4.83 |
| Q3K | 4.27 |
| Q3F | 3.61 |
| Q3V | 4.34 |
